# Where two headings read alike, the source gives them in different places.
# T1: ToPif1 (Thermus oshimai, UniProt K7RJ88 64-507)
# T1 sequence: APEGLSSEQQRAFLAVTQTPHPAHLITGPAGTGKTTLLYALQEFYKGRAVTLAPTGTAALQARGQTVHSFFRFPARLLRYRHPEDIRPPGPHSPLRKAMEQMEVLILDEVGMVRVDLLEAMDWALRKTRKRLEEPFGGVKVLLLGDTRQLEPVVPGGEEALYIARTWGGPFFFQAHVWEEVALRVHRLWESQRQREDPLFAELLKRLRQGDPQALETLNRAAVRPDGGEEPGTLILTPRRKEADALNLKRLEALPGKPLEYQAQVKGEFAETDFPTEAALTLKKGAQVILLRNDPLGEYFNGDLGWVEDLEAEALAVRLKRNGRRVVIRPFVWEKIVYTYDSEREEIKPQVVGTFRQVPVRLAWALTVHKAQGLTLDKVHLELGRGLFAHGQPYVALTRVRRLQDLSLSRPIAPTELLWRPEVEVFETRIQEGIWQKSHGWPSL
# T2: ToPif1 S69C/S405C (Thermus oshimai, UniProt K7RJ88 64-507, S69C;S405C)
# T2 sequence: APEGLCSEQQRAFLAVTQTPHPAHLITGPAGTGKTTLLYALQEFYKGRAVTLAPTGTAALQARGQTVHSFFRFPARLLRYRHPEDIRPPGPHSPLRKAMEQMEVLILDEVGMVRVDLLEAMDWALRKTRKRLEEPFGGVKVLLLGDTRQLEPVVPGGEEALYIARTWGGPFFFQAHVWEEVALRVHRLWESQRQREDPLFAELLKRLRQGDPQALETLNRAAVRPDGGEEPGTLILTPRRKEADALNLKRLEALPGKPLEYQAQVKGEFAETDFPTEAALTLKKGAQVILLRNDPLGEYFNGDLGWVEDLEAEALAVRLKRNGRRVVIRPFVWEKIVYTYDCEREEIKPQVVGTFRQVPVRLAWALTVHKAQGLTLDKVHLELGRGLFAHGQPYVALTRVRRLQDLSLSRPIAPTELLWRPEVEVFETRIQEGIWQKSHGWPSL
# How the values were obtained:
# ToPif1 [1] = biological target: T1, ToPif1; assay: crystal structure
# ToPif1 S69C/S405C [2] = biological target: T2, ToPif1 S69C/S405C; assay: smFRET
# ToPif1 S69C/S405C [3] = biological target: T2, ToPif1 S69C/S405C; assay: smFRET; remark: listed apart in the source
# ToPif1 [4] = biological target: T1, ToPif1; assay: DLS
binder,measurement,setting,value
S7D11 (dsDNA) DNA 1: TTTTTTTCGCAGTGCTCG DNA 2: CGAGCACTGCG,binding result,ToPif1 [1],binds
TTTTTTTT (ssDNA) [dT8],binding result,ToPif1 S69C/S405C [2],binds
S8D38 (dsDNA) DNA 1: TTTTTTTTTCCGGATCACCATGGCGGACTCTCTGCTCTCGTGCTCC DNA 2: GGAGCACGAGAGCAGAGAGTCCGCCATGGTGATCCGGA,binding result,ToPif1 S69C/S405C [3],binds
TTTTTTTTTTTTTTT (ssDNA) [dT15],binding result,ToPif1 [4],binds
